The values that follow come from article PMC10449631 (Nature Chemical Biology, 2023).

Assay [1] addresses T1, PaAP_T (P. aeruginosa aminopeptidase, C-terminal truncated) (Pseudomonas aeruginosa, UniProt Q02PA2).
T1 construct: PaAP (WT, residues 27–536); His6 (TEV cleavable) (N, cleaved yes); made in house; host or cells: E. coli SHuffle T7
T1 sequence (Q02PA2 whole entry, looked up): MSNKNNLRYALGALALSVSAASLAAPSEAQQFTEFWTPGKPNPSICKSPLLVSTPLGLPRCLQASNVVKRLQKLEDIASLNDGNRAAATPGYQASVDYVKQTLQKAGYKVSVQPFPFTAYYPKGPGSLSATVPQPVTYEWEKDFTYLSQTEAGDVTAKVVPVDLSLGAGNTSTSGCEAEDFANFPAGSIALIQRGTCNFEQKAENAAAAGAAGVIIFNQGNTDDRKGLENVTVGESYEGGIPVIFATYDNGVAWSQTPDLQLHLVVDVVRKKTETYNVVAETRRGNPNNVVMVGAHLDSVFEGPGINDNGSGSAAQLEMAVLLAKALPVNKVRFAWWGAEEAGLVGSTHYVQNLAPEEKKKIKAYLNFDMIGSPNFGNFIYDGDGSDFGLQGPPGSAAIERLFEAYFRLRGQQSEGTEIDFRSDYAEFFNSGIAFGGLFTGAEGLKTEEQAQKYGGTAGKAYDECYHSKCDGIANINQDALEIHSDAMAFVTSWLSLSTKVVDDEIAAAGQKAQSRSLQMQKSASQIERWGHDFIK
Briefly: Inhibition of PaAP_T in the Leu-pNA aminopeptidase assay (KI, IC50). The class given is biochemical. To be noted: for IC50 plot data (PaAP_T activity at given peptide concentration): (S) = 2 mM, PaAP 100 nM. Here is the method:
Aminopeptidase activity was determined spectrophotometrically primarily using amino Leu-pNA. Other commercially available pNA substrates (isoleucine, methionine, alanine, valine, proline, arginine, lysine and phenylalanine) were also assayed. Leu-pNA was incubated with enzyme (100 nM) in assay buffer (50 mM Tris, pH 8.5, 200 mM NaCl) at 25 °C. A pNA release caused an absorbance increase at 405 nm, monitored using a BMG Labtech plate reader. […] Data were plotted in GraphPad Prism (version 9) and the Michalis Menten equation was used for fitting.
Inhibition assays were carried out with the following peptides: linear-ERWGHDFIK (PaAP C-terminal residues), cyclic-ERWGHDFIK, N-acetylated and C-amidated ERWGHDFIK. IC50 values were determined by varying peptide concentration at a fixed substrate concentration (fixed at KM, (S) = 2 mM, PaAP concentration was 100 nM). […] KI values were determined by fitting the data to equation (1) (Morrison’s equation):1 v=1−Et+I+KI−Et+I+KI^2−4EtIKI/2Et where v is the velocity, Et is the total enzyme concentration, I is the concentration of inhibitor and KI is the equilibrium dissociation constant for the inhibitor. IC50 values increased when measured at increasing S, consistent with competitive inhibition.

The target in a further assay is T2, PaAP (Pseudomonas aeruginosa, UniProt Q02PA2, A513L/Q514V/S515P).
T2 construct: PaAP (WT, residues 27–536); His6 (TEV cleavable) (N, cleaved yes); made in house; host or cells: E. coli SHuffle T7
The assay can be described thus: Peptide digestion assay (overnight and time course, LC-MS/MALDI). It is filed as biochemical. The following applies: for P0 (parent peptide, LC–MS signal): 500 μM peptide, 1 μM PaAP_T. Here is the method:
A variety of peptides of varying lengths and compositions were incubated with PaAP at room temperature. Assays were performed by incubating (overnight at room temperature) 500 μM of substrate (peptides) with 1 μM enzyme (PaAP) in reaction buffer (50 mM Tris, pH 8.5, 100 mM NaCl). The reactions were quenched by heating to 100 °C for 10 min followed by centrifugation at 17,000g in a benchtop centrifuge to remove precipitate. Supernatant was collected and samples were analyzed by LC–MS. Initial trial assays were carried out in the presence and absence (control) of enzyme to determine if the substrate was degraded (single or triplicate experiments). Time-course assays were performed on selected peptide substrates in triplicate. A 300 μl reaction (including 500 μM of substrate) was initiated by the addition of 1 μM enzyme. The reaction was incubated at room temperature. The reaction was quenched at set timepoints by the removal of 30 μl aliquots, which were immediately heated to 100 °C for 10 min. The samples were analyzed by LC–MS using a Xevo Q-ToF (Waters) as described below, searching for masses of all peptide breakdown products.
Peptide degradation time courses were fitted to exponential equations as follows:
P0 peptide consumption was fitted to a single exponential equation (equation (2)) with the format2 yt=y0−Plateaue^−kt+Plateau
Time courses for the formation and decay of peptide intermediates were fitted to double exponential equations (equation (3)) and single exponential equations, followed by a linear phase (4)3 yt=y0−Plateau1e^−k1t+y0−Plateau2e^−k2t+Plateau 4 yt=y0−Plateaue^−kt+vt+Plateau where y(t) is the product formed at time t, y0 − Plateau is the amplitude of the exponential phase, k is the observed rate constant for the exponential phase, y0 is the value of y at time 0, Plateau is the value of y after exponential phase, C is the offset and v is the slope of the linear phase.
Peptide samples incubated in the presence and absence of PaAP were initially analyzed by MALDI. The peptide sample (0.5 µl at 10 µM) was spotted along with matrix (0.5 µl 10 mg ml^−1 α-cyano-4-hydroxycinnamic acid in ACN/0.1% TFA (50/50, vol/vol)) on a stainless steel MALDI plate and left to dry. The sample plate was loaded into a Sciex 4800 MALDI mass spectrometer. The laser voltage was adjusted to give a good signal to noise strength, and 50 shots were acquired in a random pattern across the spot and spectra combined. The spectra were externally calibrated with Sciex Pepcal mix (range: 500–4,000 m/z).

“And” between values parts separate entries of the source, which are not always exact repeats. Identical values can stand only once.

T2 sequence (Q02PA2 37-516 A513L/Q514V/S515P): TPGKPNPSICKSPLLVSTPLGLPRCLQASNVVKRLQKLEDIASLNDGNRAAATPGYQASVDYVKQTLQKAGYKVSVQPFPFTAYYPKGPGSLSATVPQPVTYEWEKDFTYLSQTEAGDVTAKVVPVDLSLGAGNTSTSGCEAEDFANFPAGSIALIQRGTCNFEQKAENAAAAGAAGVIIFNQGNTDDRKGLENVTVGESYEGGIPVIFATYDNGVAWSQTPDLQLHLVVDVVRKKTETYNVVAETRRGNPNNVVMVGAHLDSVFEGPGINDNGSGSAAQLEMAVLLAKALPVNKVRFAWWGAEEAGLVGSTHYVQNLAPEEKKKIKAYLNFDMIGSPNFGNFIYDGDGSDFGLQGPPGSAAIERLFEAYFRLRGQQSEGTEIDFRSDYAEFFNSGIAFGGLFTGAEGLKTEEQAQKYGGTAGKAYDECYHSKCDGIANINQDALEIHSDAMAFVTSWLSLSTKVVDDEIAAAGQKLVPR

Consider “ERWGHDFIK (head-to-tail): ERWGHDFIK peptide cyclized head-to-tail (head-to-tail cyclized)”, for which the “inhibition of PaAP_T” value in assay [1] (Leu-pNA assay) was “very poor inhibitors”. Further, the “IC50 plot data (PaAP_T activity at given peptide concentration)” value in assay [1] (log(I) 0) was 101.617 and 102.323 and 98.6769; in assay [1] (log(I) 0.39794), 100.735 and 102.44 and 95.9718; in assay [1] (log(I) 0.69897), 96.6774 and 96.207 and 104.322; in assay [1] (log(I) 1), 101.558 and 102.323 and 97.1479; in assay [1] (log(I) 1.39794), 95.7365 and 95.8542 and 103.44; in assay [1] (log(I) 1.69897) it was 85.1514 and 85.6807 and 79.6236. In addition, the “IC50 plot data (PaAP_T activity at given peptide concentration)” value in assay [1] (log(I) 2) is 68.1564 and 67.5684 and 61.9818; in assay [1] (log(I) 2.39794), 37.6478 and 35.5307 and 32.0024; in assay [1] (log(I) -0.30103), 93.6783 and 96.7951 and 93.6195; in assay [1] (log(I) -0.60206) it was 99.853 and 100.676 and 98.5004; in assay [1] (log(I) -1), 98.7357 and 97.5007 and 102.499; in assay [1] (log(I) -1.30103), 86.6216 and 85.5631 and 74.2723.

With “RYLGYL: casein-derived peptide (UniProt P02662 105-110, looked up, fragment) [reference compound]”, the “substrate of / degraded by PaAP (words)” value in the assay with PaAP (incubated with PaAP overnight, LC–MS or MALDI) was “capable of processing”.

Consider “ERLGHDFIK [… peptide with W replaced by L]”, for which the “P0 (parent peptide, LC–MS signal)” value in the assay with PaAP (time 0 minutes) was 242839 and 266621 and 225820; with PaAP (time 5 minutes) it was 120859 and 126339 and 82871.9; with PaAP (time 10 minutes) it was 45005.2 and 53825.2 and 41072.7; in the assay with PaAP (time 30 minutes), 28627.8 and 28689.7 and 21100.6; with PaAP (time 60 minutes), 29596.5 and 28748.7 and 27907.5; in the assay with PaAP (time 90 minutes) it was 29084.8 and 28644.1 and 25592.5. In addition, the “P0 (parent peptide, LC–MS signal)” value was 30548.5 and 27618.8 and 28168.1 with PaAP (time 120 minutes); 31516.5 and 29951.1 and 28383.1 in the assay with PaAP (time 180 minutes); 25934 and 29596.2 and 25678.6 with PaAP (time 1220 minutes). Also, the “relative rate of degradation by PaAP” value with PaAP (time-course assay, LC–MS) is “degraded at a faster rate than ERWGHDFIK”.
